The target in this test is human PDL1 protein (plate-coated) (human, UniProt Q9NZQ7 19-238, limits assumed). Nature of the test: titration ELISA, soluble monomeric decoy on plates coated with human PDL1 protein, anti-His tag detection. As to the method:
FIGS. 9A, 9B, 9C, and 9D are a set of diagrams showing characterization of PD-1 decoy variants and hCD8+ T cells transduced with the PD-1 decoy variants and tEGFR. […] Bound PD1 decoy molecules were detected with an anti-His tag antibody. […] The engineered T cells were co-cultured at a 1:1 ratio with different PD-L1⁺ target tumor cells (100,000 of each cell type) for 48 hours. NA8 and HLA/A2+NY-ESO-1−, SAOS2, and A375 are HLA/A2+ NY-ESO-1+. The supernatants were collected after 48 hours, diluted 1 in 25, and evaluated for the presence of IFNγ using a commercial ELISA kit from Thermo). […] CD8 T cells engineered with PD1 decoy_tEGFR retrovirus were labeled with chromium. The engineered T cells were co-cultured with anti-EGFR Ab and co-cultured with different ratios of PBMCs from the same donor. The negative control is NT (non-transduced) T cells Killing evaluated at 4 hours. As positive control, T cells were treated with HCl.
(In general: An ELISA detects its analyte on a solid surface through an enzyme-linked reagent.)

human PDL1 protein (plate-coated), sequence (Q9NZQ7 19-238 limits assumed): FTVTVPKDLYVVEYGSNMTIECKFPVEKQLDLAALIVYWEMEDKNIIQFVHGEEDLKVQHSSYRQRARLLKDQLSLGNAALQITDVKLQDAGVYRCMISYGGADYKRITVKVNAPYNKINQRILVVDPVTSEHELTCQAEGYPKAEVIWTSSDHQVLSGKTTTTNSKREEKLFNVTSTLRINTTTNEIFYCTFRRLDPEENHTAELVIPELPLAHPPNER

B1: PD1_4XMUT_M70 (with 6xHis), soluble monomeric PD1 decoy variant (bacterial production) (receptor)
chain: MASDSPDRPWNPPTFSPALLVVTEGDNATFTCSFSNTSESFVLNWYRMSPSNQDDRLAAFPEDRSQPGQDARFRVTQLPNGRDFHMSVVRARRNDSGTYFCGAISLAPKAKIKESLRAELRVTERRALEHHHHHH
Turning to B1, the “fold better binding than the WT PD1 decoy” value worked out at 10 fold.

B2: PD1_6XDM (with 6xHis), soluble monomeric PD1 decoy variant (bacterial production) (receptor)
chain: MASDSPDRPWNPPTFSPALLVVTEGDNATFTCSFSNTSESFVLNWYRMSPSNQVDRLAAFPEDRSQPGQDARFRVTQLPNGRDFHMSVVRARRNDSGTYFCGAISLAPKWKIKESLRAELRVTERRALEHHHHHH
notes: also called 6×DM; variant 6×DM
Consider B2, for which the “fold better binding than the WT PD1 decoy” value was about 7.5 fold.

The record behind these values is patent US20240207319A1 (LUDWIG INSTITUTE FOR CANCER RESEARCH, published 2024).
